Measurements: the nanobody polyreactivity screen of Harvey et al. (2022)

Assay: yeast display, Sf9 membrane polyspecificity reagent, FACS + sequencing; frameworks hold sequencing errors
How it was run: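 Polyreactivity labels are assigned by the sorting gate from which each nanobody was recovered. The gates were low and high (top ~1%), set on anti-HA fluorescence for expression and streptavidin fluorescence for reagent binding. Before sorting, galactose-induced (36–48 hours) yeast display cells were stained for 1 hour at 4 °C with 10% biotinylated, detergent-solubilized Sf9 membrane reagent.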

Sequence	polyreactivity (PSR sort gate)
QVQLVESGGGLVQAGGSLRLSCAASGNTFRRNVMGWYRQAPGKERELVAAINRGGSTTYADSVKGRFTISRDNAKNTVFLQMNSLKPEDTAVYYCNAEKRGQSYRFDYWGQGTQVTVSS	high polyreactivity
QVQLVESGGGLVQAGGSLRLSCAASGITVALNAMGWYRQAPGKERELVAAISWSGDSTYYADSVKGRFTISRDNAKNTVYLQMNSLKPEDTAVYYCNTYPRRFFYSQRYDYWGQGTQVTVSS	low polyreactivity
QVQLVESGGGLVQAGGSLRLSCAASGSIFSDNAMGWYRQAPGKERELVAAITYSGGRTSYADSVKGRFTISRDNAKNTVYLQMNSLKPEDTAVYYCAVGSHSRSSNSYYYWGQGTQVTVSS	low polyreactivity
QVQLVESGVGLVQARGSLRLSCAASGIIFKKTVMGWYRPSPGKERECVAPITSRDGSTYYADSVKGRFTISRDNANNTVYLQMNSLKPEDTAVYYCAAEVYDGYEYEVWYDYCGQGTQVTVSS	high polyreactivity
QVQLVESGGGLVQAGGSLRLSCAASGLIFHTYAMGWYRQAPGKERELVAAIRGGGSTNYADSVKGRFTISRDNAKNTVYLQMKSLKPEDTAVYYCNATWNLFPGVLDRYDYWGQGTQVTVSS	low polyreactivity
QVQLVESGGGLVQAGGSLRLSCAASGRIFRRYTMGWYRQAPGKERELVAAITWNGGRTYYADSVKGRFTISRDNAKNTVYLQMNSLKPEDTAVYYCAARRQGGYGYDYWGQGTQVTVSS	high polyreactivity
QVQLVESGGGLVQAGASLRLSCAASGLTFEYYTMGWYRQAPGKERELVAAITSSGGSTYYADSVKGRFTISRDNAKNTVYLQMNSLKPEDTAVYYCNAYWTYEFPSYDYWGQGTQVTVSS	low polyreactivity
QVQLVESGGGLVQAGGSLRLSCAASGYIFYTYAMGWYRQAPGKERELVASIDSGGSTNYADSVKGRFTISRDNAKNTVYLQMNSLKPEDTAVYYCAADVIVRVYYYYYVLMDYWGQGTQVTVSS	low polyreactivity
QVQLVESGGGLVQAGGSLRLSCAASGRTFRYYAMGWYRQAPGKERELVASISSSGSTNYADSVKGRFTISRDNAKNTVYLQMNSLKPEDTAVYYCAAESRYPFIYEYWGQGTQVTVSS	low polyreactivity
QVQLVESGGGLVQAGGSLRLSCAASGSIFDYNAMGWYRTAPGKERELVAAITGSGGSTYYADSVKGRFTISRDNAKNTVYLQMNSLTQEDTAVYYCAAPVDYRRYEYEYWGQGTQVTLSS	low polyreactivity
QVQLVESGGGVVQAGGSLRLSCAASGSTFYSYAMGWYRQAPGKERELVAAISSGGGRTYYADSVKGRFTISRDNAKNTVYLQMNSLKPEDTAVYYCAASYWYRDYYYWGQGTQVTVSS	high polyreactivity
QVQLVESGGGLVQAGGSLRLSCAASASTIIRNAMGWYRQAPGKERELVAAISTSGGRTHYADSVKGRFTISRDNAKNTVYLQMNSLKPEDTAVYYCDTRGKGHYYYWGQGTQVTVSS	high polyreactivity
QDQLVESGGGLLQAGASLRLSCAASGFIFDSYAIGWDRQAPGKERELVAAITSSGSSTYYADSVKGRFTISRDNAKNTVYLQMNSLKPEDTAVYYCNAVYSATVVAWRFGYWGQGTQVTVSS	high polyreactivity
QVQLVESGGGLVQAGGSLRLSCAASGSIFWYNAMGWYRQAPGKERELVAAIRWRGGSTYYADSVKGRFTISRDNAKNTVYVQMSSLKPEDTAVYYCAAQVYVSQLYTSYYYWGQGTQVTVSS	high polyreactivity
QVQLQESGGGLVQAGGCLRLSCAASGTIFDPDYMGWYHQAPGKERELVASISLGRITYYADSVKGRFTINRDNAKNTVYLQMNSLKPEDTAVYYCAVRVETIYYYSYWGQGTQVTVSS	high polyreactivity
QVQLVESGGGLVQAGGSLRLSCAASGRISQIYARGWYRQAPGKERELVASISSSGSRTYYADSVKGRFTISRDHAKNTVYLQMNSLKPEDTAVYYCAATYLKVHGEYDYWGQGTQVTVSS	high polyreactivity
QVQLVESGGGLVQAGGSLRLSCAASGFTFRTNAMGWYRQAPGKEREFVATITRRGGSTYYADSVKGRFTISRDNAKKTVYLQLNSLKPEDTAVYYCNAVFSSQEYEYWGQGTQVTVSS	high polyreactivity
QVQLVESGGGLVQAGGSLRLSCAASGRIFIWYGMGWYRQAPGKERELVADISSTGSTNYADSVKGRFTISRDNAKNTVYLQMNSLKPEDTAVYYCAADPETPYYTTYDYDYWGQGTQVTVSS	low polyreactivity
QVQLVESGGGLVQAGGSIRLSCAASGGTFKTYVMGWNRQAPVKERELVAAINTSGTSTYYADSVKGRFTISRDNAKIKVYLQMNSLKPEDTAVYYCATRYRYTYYWGQGTQVTVSS	high polyreactivity
QVQLVESGGGLVQAGGSLRLSCAASGSTFAYYAMGWYRQAPGKERELVAAISASGSRTYYADSVKGRFTISRDNAKNTVYLQMNSLKPEDTAVYYCAALQYRRKIPTAYAGDYWGQGTQVTVSS	high polyreactivity
QVQLVESGRGLFHAGGSLRLSCAASGNTFGKYDMGWSIQAPGKERELVAAISKSSGSTYYADSVKGRFTISRDNAKNTVYFQMNSLKPEDTAVYYCAAEAYRYAWYDYWGQGTQVTVSS	high polyreactivity
QVQLVESGGGLVHAGGSLRLSCAASGFIFWDYAMGWYRQAPGKERELVAAISDSGGDTYYADSVKGRFTISRDNAKNTVNLQMNRLKPEDTAVYYCAAYSPSSRFDRRGYWGQGNQVTVSS	low polyreactivity
